In publication PMC8513623:

Experiments:
[1] = target: Full-length zebrafish Cavin4b (Cavin4b-FL), His-ubiquitin tagged (zebrafish) (UniProt Q5PQY9); test: ITC
[2] = target: Bin1b SH3 domain (zebrafish), N-terminally His-tagged (zebrafish); test: ITC

| Substance | Kd [1] | Kd [2] |
| --- | --- | --- |
| Bin1b SH3 domain (zebrafish), N-terminally His-tagged (domain or fragment) | 55.9 µM |  |
| Cavin4b PRD peptide (zebrafish Cavin4b proline-rich peptide) (from UniProt Q5PQY9 271-286) |  | 61.7 µM |
| Chikungunya virus (CHIKV) proline-rich peptide |  | 0.0889 µM |
